Measurements reported in FireProtDB (doi:10.1021/bi960855h).

Conditions: Bos taurus, Thermal, DSC, NaCl 200 mM, reversible: yes, whole UniProt chain shown
[1] = pH 4, Acetic acid-Sodium acetate 10 mM
[2] = pH 5, Acetic acid-Sodium acetate 10 mM

B1: Ribonuclease pancreatic wild type, P61823 (protein)
chain: MALKSLVLLSLLVLVLLLVRVQPSLGKETAAAKFERQHMDSSTSAASSSNYCNQMMKSRNLTKDRCKPVNTFVHESLADVQAVCSQKNVACKNGQTNCYQSYSTMSITDCRETGSSKYPNCAYKTTQANKHIIVACEGNPYVPVHFDASV
Tm [1]: 44.6 °C | heat capacity change of unfolding [1]: 1.24 kcal/mol/K | unfolding enthalpy (calorimetric) [1]: 395 kJ/mol | unfolding enthalpy (van 't Hoff) [1]: 410 kJ/mol | Tm [2]: 45.5 °C | heat capacity change of unfolding [2]: 1.2 kcal/mol/K | unfolding enthalpy (calorimetric) [2]: 400 kJ/mol | unfolding enthalpy (van 't Hoff) [2]: 405 kJ/mol | Tm (pH 6, MES 10 mM): 46.8 °C | heat capacity change of unfolding (pH 6, MES 10 mM): 1.17 kcal/mol/K | unfolding enthalpy (calorimetric) (pH 6, MES 10 mM): 410 kJ/mol | unfolding enthalpy (van 't Hoff) (pH 6, MES 10 mM): 420 kJ/mol | Tm (pH 6.5, MES 10 mM): 47.2 °C | heat capacity change of unfolding (pH 6.5, MES 10 mM): 1.22 kcal/mol/K | unfolding enthalpy (calorimetric) (pH 6.5, MES 10 mM): 415 kJ/mol | unfolding enthalpy (van 't Hoff) (pH 6.5, MES 10 mM): 420 kJ/mol | Tm (pH 7, MOPS 10 mM): 50.1 °C | heat capacity change of unfolding (pH 7, MOPS 10 mM): 1.22 kcal/mol/K | unfolding enthalpy (calorimetric) (pH 7, MOPS 10 mM): 431 kJ/mol | unfolding enthalpy (van 't Hoff) (pH 7, MOPS 10 mM): 426 kJ/mol | Tm (pH 7.5, MOPS 10 mM): 50.6 °C | heat capacity change of unfolding (pH 7.5, MOPS 10 mM): 1.2 kcal/mol/K | unfolding enthalpy (calorimetric) (pH 7.5, MOPS 10 mM): 436 kJ/mol | unfolding enthalpy (van 't Hoff) (pH 7.5, MOPS 10 mM): 441 kJ/mol
